{"source": "patent US20200399330A1", "about": "“ANTI-LEUKEMIC, ANTI-HIV, AND SIALIDASE ACTIVITIES OF ROYAL-JELLY PROTEINS” (priority 2018, published 2020)", "key": {"[1]": {"system": "murine myeloid (NFS-60) leukemia cells", "experiment": "Anti-leukemic activity, MTT assay and phase-contrast morphology, NFS-60", "type": "cell-based", "conditions": "NFS-60, 72 h", "description": "(§1) Anti-leukemic activity of RJ and its fractions, Both leukemia cells (NFS-60 and Jurkat) were seeded in RPMI containing 10% FBS as 3000 cells/well in 96 well cell culture plate. Then serial concentrations from the safe dose of each of the tested RJ and its fractions was added and incubated for 72 h in a 5% CO2 incubator at 37° C. The cytotoxic effect of RJ and its fractions in comparison with DOX against both leukemia cell lines were investigated using the MTT assay as described above. Then the concentration that inhibits leukemia cell growth by 50% (IG50 value) was determined for the RJ and each of its fractions and used to select the effective fraction (the lowest IG50 value). The morphological changes of untreated and treated leukemia cells were examined using the phase-contrast microscope."}, "[2]": {"system": "human T lymphocyte (Jurkat) leukemia cells", "experiment": "Anti-leukemic activity, MTT assay and phase-contrast morphology, Jurkat", "type": "cell-based", "conditions": "72 h", "description": "as §1"}, "NFS-60 cells [3]": {"system": "NFS-60 cells", "experiment": "Fluorescence microscope investigation of apoptotic cells (EB/AO double staining), NFS-60", "type": "cell-based, murine", "conditions": "NFS-60, 72 h", "description": "(§2) Then leukemia cell apoptosis was investigated by ethidium bromide (EB)/acridine orange (AO) double staining (100 μg/mL for each) and then visualized under the fluorescent phase contrast microscope (Olympus, Japan)."}, "Jurkat cells [4]": {"system": "Jurkat cells", "experiment": "Fluorescence microscope investigation of apoptotic cells (EB/AO double staining), Jurkat", "type": "cell-based, human", "conditions": "72 h", "description": "as §2"}, "NFS-60 cells [5]": {"system": "NFS-60 cells", "experiment": "Flow cytometric analysis of apoptosis (annexin V/PI), NFS-60", "type": "cell-based, murine", "conditions": "NFS-60, at IG50, 72 h", "description": "(§3) Flow cytometric analysis of apoptosis, RJ, its effective fractions (CPF, PF50, MRJP2, and MRJP2 X1), and DOX at their IG50 was incubated for 72 h with each of the leukemia cell lines. After trypsinization, the untreated and treated cells were incubated with annexin V/propidium iodide (PI) for 15 min. Then cells were fixed and incubated with streptavidin-fluorescein (5 μg/mL) for 15 min. The apoptosis-dependent anti-leukemic effect was determined by quantification of annexin-stained apoptotic cells using the Fluorescein isothiocyanate (FITC) signal detector (FL1) in the flow cytometer (Partec, Germany)."}, "Jurkat cells [6]": {"system": "Jurkat cells", "experiment": "Flow cytometric analysis of apoptosis (annexin V/PI), Jurkat", "type": "cell-based, human", "conditions": "at IG50, 72 h", "description": "as §3"}, "NFS-60 cells [7]": {"system": "NFS-60 cells", "experiment": "Cell cycle distribution by flow cytometry, NFS-60", "type": "cell-based, murine", "conditions": "NFS-60, at IG50, 72 h", "description": "(§4) Briefly, the untreated and treated leukemia cells were incubated with 5 μg/mL RNase A (Sigma, USA) then mixed with 10 μl of 1 mg/mL PI (Sigma, USA) for flow cytometry analysis at 488 nm using Cell Quist and Mod Fit softwares."}, "Jurkat cells [8]": {"system": "Jurkat cells", "experiment": "Cell cycle distribution by flow cytometry, Jurkat", "type": "cell-based, human", "conditions": "at IG50, 72 h", "description": "as §4"}, "PBMCs": {"system": "PBMCs", "experiment": "Sialidase activity (release of cellular SA), PBMCs", "type": "cell-based, human", "conditions": "2 h and 72 h incubation", "description": "(§5) The sialidase catalytic activity of the RJ isolated PFs was evaluated by incubating different concentrations (500, 250, 125, 62.5, 31.25) of each of the RJ-PFs (CPF, PF25, PF30, PF40, PF50, PF60, MRJP2 and MRJP2 isoform X1) with PBMCs or HepG2 cells at 37° C. for 2 h and 72 h. Two controls were included, each PF alone without cells and each cell alone without PF. At the end of the incubation period, the released SA concentration was quantified followed the previously published method.\n(§6) Preparation of SA-attached cells, PBMCs were obtained by Ficoll-Hypaque density gradient centrifugation method as described previously. […] Finally, the supernatant was removed and the cells were suspended in 5 ml of RPMI-1640 medium containing 10% FBS and counted using trypan blue stain. […]\n(§7) The SA assay, SA concentration was measured by the alkali-Ehrlich method using 0.2 M borate buffer at pH 8.5. After the incubation period (2 h or 72 h), cell culture was centrifuged at 2000 rpm for 15 min and the SA content was quantified in the supernatant. […] The developed violet color was read at 560 nm. The SA concentration (nmol/mL) was calculated from the standard SA calibration curve and used to calculate the sialidase activity of the RJPF as nmol/ml/min (IU). The specific activity (IU/mg protein) was calculated after determination of the protein content (mg/mL) in the supernatant using the Bradford method."}, "HepG2 cells": {"system": "HepG2 cells", "experiment": "Sialidase activity (release of cellular SA), HepG2", "type": "cell-based", "conditions": "2 h and 72 h incubation", "description": "as §5, §6, §7"}}, "note": "Entries after “also recorded” stand apart in the source; their conditions may differ.", "data": [{"molecule": "COc1cccc2c1C(=O)c1c(O)c3c(c(O)c1C2=O)C[C@@](O)(C(=O)CO)C[C@@H]3O[C@H]1C[C@H](N)[C@H](O)[C@H](C)O1", "note": "[DOX, Doxorubicin, reference compound]", "values": [{"measurement": "IG50 (concentration that inhibits leukemia cell growth by 50%)", "setting": "[1]; MTT", "value": "significantly more potent than the tested fractions"}, {"measurement": "IG50 (concentration that inhibits leukemia cell growth by 50%)", "setting": "[2]; MTT", "value": "significantly more potent than the tested fractions"}, {"measurement": "apoptotic cell populations by EB/AO double staining", "setting": "NFS-60 cells [3]", "value": "increased the number of the late apoptotic cells"}, {"measurement": "apoptotic cell populations by EB/AO double staining", "setting": "Jurkat cells [4]", "value": "increased the number of the late apoptotic cells"}]}, {"molecule": "MRJP2: bound protein purified from PF50 by CM-Sephadex ion-exchange chromatography (protein, UniProt O77061 18-452, looked up) Major royal jelly protein 2: AIVRENSPRNLEKSLNVIHEWKYFDYDFGSEERRQAAIQSGEYDHTKNYPFDVDQWRDKTFVTILRYDGVPSTLNVISGKTGKGGRLLKPYPDWSFAEFKDCSKIVSAFKIAIDKFDRLWVLDSGLVNRTVPVCAPKLHVFDLKTSNHLKQIEIPHDIAVNATTGKGGLVSLAVQAIDLANTLVYMADHKGDALIVYQNADDSFHRLTSNTFDYDPRYAKMTIDGESFTLKNGICGMALSPVTNNLYYSPLASHGLYYVNTAPFMKSQFGENNVQYQGSEDILNTQSLAKAVSKNGVLFVGLVGNSAVGCWNEHQSLQRQNLEMVAQNDRTLQMIAGMKIKEELPHFVGSNKPVKDEYMLVLSNRMQKIVNDDFNFDDVNFRILGANVKELIRNTHCVNNNQNDNIQNTNNQNDNNQKNNKKNANNQKNNNQNDN", "values": [{"measurement": "morphological changes under the phase contrast microscope", "setting": "[1]", "value": "hallmarks of the apoptosis, which observed obviously"}, {"measurement": "morphological changes under the phase contrast microscope", "setting": "[2]", "value": "hallmarks of the apoptosis, which observed obviously"}, {"measurement": "% apoptotic cells (annexin V/PI)", "setting": "NFS-60 cells [5]", "value": "inducing apoptosis; also recorded: highest percentage of the apoptotic cell populations"}, {"measurement": "% apoptotic cells (annexin V/PI)", "setting": "Jurkat cells [6]", "value": "inducing apoptosis; also recorded: highest percentage of the apoptotic cell populations"}, {"measurement": "apoptotic cell populations by EB/AO double staining", "setting": "NFS-60 cells [3]", "value": "increased the number of the late apoptotic cells"}, {"measurement": "apoptotic cell populations by EB/AO double staining", "setting": "Jurkat cells [4]", "value": "increased the number of the late apoptotic cells"}, {"measurement": "cell cycle distribution (G0, G1, S, G2/M)", "setting": "NFS-60 cells [7]", "value": "almost completely blocking the cell cycle G0 phase; also recorded: the most effective fraction with the same or higher potency than DOX"}, {"measurement": "cell cycle distribution (G0, G1, S, G2/M)", "setting": "Jurkat cells [8]", "value": "almost completely blocking the cell cycle G0 phase; also recorded: the most effective fraction with the same or higher potency than DOX"}, {"measurement": "sialidase activity (released SA)", "setting": "PBMCs", "value": "proven their sialidase activity"}, {"measurement": "sialidase activity (released SA)", "setting": "HepG2 cells", "value": "proven their sialidase activity"}]}]}
